Our source for the activity values is patent US20180112219.

Data set [1] has as its system 5' NS-TALEN (artificial (TALE-FokI)). Briefly: cleavage_in_vitro. As to conditions: pair with 3' HT-TALEN; 747 bp PCR template, 30 C.
In data set [2] the test system is 5' NS-TALEN (in cells) (artificial (TALE-FokI)). As to the kind of experiment: cell_activity. As to conditions: NS pair in HeLa-tat-III/LTR/d1EGFP cells; 2 of 23 clones mutated.

“TCTCTGGTTAGACCAGATCT (double strand) [5' TALE binding target, HIV-1 LTR TAR]”: the activity amounted to 42 % cleavage in data set [1] and 30 % GFP loss in data set [2].
